Results from the supplement of paper PMC10724198.
± gives the standard deviation of the averaged measurements.

What follows are sequences tested on Saccharomyces cerevisiae (assay: protein stability index of tFT-peptide fusion (C-terminal peptide) (PSI (0-1 scale)); higher = more stable (slower turnover)). Details: genetic background: wild type; temperature: 30 C.
Protocol: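 Multiplexed protein stability (MPS) profiling in S. cerevisiae. Random 12-aa peptides (tFT-X12 library) are fused to the C-terminus of a sfGFP-mCherry tandem fluorescent timer, after mCherry and a GGGS linker. Cells are FACS-sorted into 8 mCherry/sfGFP bins and deep-sequenced. The protein stability index (PSI) is the read-weighted bin average, scaled from 0 (unstable) to 1 (stable). Only peptides with >10 reads are reported; cells were grown at 30 °C in SC-His with glucose.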
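Also: PSI is a weighted mean of sequencing reads over stability bins, variants kept only with over 10 reads, mCherry proximal and sfGFP distal, peptide attached via GGGS linker.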

Sequence | protein stability index
GPTGPATQNDDS | 0.671 ± 0.018
GPVLAVTRIVCK | 0.552 ± 0.0096
GPYPPFSPPPLS | 0.697 ± 0.072
GQGACWLCVGGR | 0.685 ± 0.02
GQKKGRGGEREE | 0.676 ± 0.03
GQLGGRGNRRVA | 0.718 ± 0.041
GQQILGGRSLEG | 0.63 ± 0.035
GQQVDKMLWDEV | 0.715 ± 0.025
GQVAKVKVRKKK | 0.755 ± 0.052
GRCFGGVVRGAL | 0.655 ± 0.051
GRCVCVLFWHVS | 0.571 ± 0.0078
GRDCSSHFIVPL | 0.713 ± 0.029
GRDGQTLYLVLL | 0.686 ± 0.03
GREGELDKKKWH | 0.723 ± 0.051
GREGKEKKKPRR | 0.696 ± 0.097
GREGKHLGAPPS | 0.68 ± 0.032
GREGQGRGGQQG | 0.629 ± 0.05
GRERGTEKGESG | 0.631 ± 0.11
GRERMVVVSCGS | 0.629 ± 0.043
GRGDNRKVDGEG | 0.671 ± 0.061
GRGGGGGRDREA | 0.703 ± 0.076
GRGGGRGVGVVG | 0.6345 ± 0.0028
GRGGLGGGEWDR | 0.711 ± 0.0028
GRGGPSGAKAHR | 0.684 ± 0.026
GRGGTYVVLWGV | 0.661 ± 0.1
GRGKGNEREVRT | 0.656 ± 0.022

Sequence | protein stability index
GRGLGRVMRGRV | 0.6182 ± 0.0059
GRGLSSLCRRFS | 0.691 ± 0.044
GRGRDDKTYKKT | 0.669 ± 0.031
GRGRGEVMNGRG | 0.574 ± 0.0044
GRGRLLYWEKWL | 0.66 ± 0.03
GRIRGCSPFPLW | 0.63 ± 0.094
GRKCWDRSGWTV | 0.771 ± 0.014
GRKIIIRKNKIK | 0.613 ± 0.05
GRKKKINDDKKN | 0.688 ± 0.071
GRLGCAVCGSRG | 0.708 ± 0.041
GRLLRVSCHGVS | 0.701 ± 0.019
GRNFSHKKRGKY | 0.685 ± 0.03
GRPRPRSGWILL | 0.672 ± 0.067
GRQLNDSISTLK | 0.642 ± 0.015
GRQVTSTLTKLL | 0.617 ± 0.18
GRRCKNMKKMSW | 0.674 ± 0.046
GRRGRWCAGQWG | 0.6743 ± 0.0062
GRRLGREWGDAP | 0.721 ± 0.12
GRRNGLCENPRG | 0.657 ± 0.0077
GRRPPWRFSFPF | 0.769 ± 0.063
GRRRDREAVVPW | 0.732 ± 0.032
GRRRGWAWGVWG | 0.683 ± 0.0084
GRRVPGPLRSSE | 0.709 ± 0.085
GRSVSGYGSFID | 0.686 ± 0.017
GRVAMAVSGGVG | 0.638 ± 0.023
GRVGFGSGAWLR | 0.669 ± 0.0021

Sequence | protein stability index
GRVGGRAGGRGR | 0.691 ± 0.039
GRVGGRSGGRGR | 0.68 ± 0.013
GRVGSLCGWLWR | 0.722 ± 0.02
GRVRARGRRGKG | 0.625 ± 0.058
GRVRFVCVGLGG | 0.639 ± 0.047
GRWRIVSLEELQ | 0.724 ± 0.035
GRYLGARRGRAF | 0.68 ± 0.078
GRYSECCSGGGG | 0.674 ± 0.015
GSCGCLSVVSGR | 0.713 ± 0.044
GSCGWCGVARWG | 0.762 ± 0.05
GSERGGRSRGRG | 0.665 ± 0.0059
GSFVEEVFRVKS | 0.6646 ± 0.0061
GSGRNKGLWRIW | 0.725 ± 0.04
GSGSVWQGLGSG | 0.711 ± 0.032
GSGTPRTPCLSH | 0.642 ± 0.04
GSLASRGVFVVV | 0.614 ± 0.042
GSNRLYRGVTIT | 0.627 ± 0.0082
GSNRTLSLYCVG | 0.633 ± 0.016
GSPRFSNGCEYF | 0.59 ± 0.026
GSREHYGLFLGH | 0.673 ± 0.032
GSRSSDTGGRLM | 0.6819 ± 0.00074
GSRVGRATGRRR | 0.709 ± 0.014
GSRWRISYQQVL | 0.623 ± 0.037
GSSGRFFHVVVF | 0.644 ± 0.074
GSSPCHNEESGT | 0.693 ± 0.014
GSVGWRGGEGRW | 0.59 ± 0.11

Sequence | protein stability index
GSVLRCFFRKGS | 0.6923 ± 0.0059
GSVYFDLLCVRP | 0.729 ± 0.048
GSWIGGSVIGGQ | 0.763 ± 0.073
GTASGGPKVSLF | 0.656 ± 0.088
GTETKIRNKHVE | 0.645 ± 0.059
GTGMMGFFWIVA | 0.571 ± 0.069
GTKGEGGGKGGV | 0.693 ± 0.038
GTLDTDAGTINH | 0.683 ± 0.025
GTPNLTEEPPHQ | 0.761 ± 0.034
GTPPRSGLPLCT | 0.711 ± 0.0099
GTRAETQWSVGM | 0.682 ± 0.013
GTRPSPPSRLVS | 0.677 ± 0.031
GTVHQQGGPIDG | 0.676 ± 0.033
GVAGRRRRAGAW | 0.7294 ± 0.002
GVAVLAGWEVLG | 0.653 ± 0.021
GVCGGGGGWGVA | 0.6826 ± 0.0019
GVCSRVFLGRVE | 0.6836 ± 0.0065
GVDKQSGTRNIK | 0.704 ± 0.0068
GVEVAGCPGARG | 0.655 ± 0.042
GVFCHILAFLWC | 0.512 ± 0.019
GVFFVRAGSVYC | 0.579 ± 0.019
GVFHAWAWCCGF | 0.78 ± 0.099
GVGAALDVWRRR | 0.696 ± 0.033
GVGGAGIGVGMG | 0.705 ± 0.032
GVGGCVMGVGRV | 0.64763 ± 0.00048
GVGGFLGVVGVG | 0.5857 ± 0.0019

Sequence | protein stability index
GVGGGISGGRWG | 0.666 ± 0.088
GVGGGSRGVCLG | 0.638 ± 0.094
GVGGVCEMVAIK | 0.506 ± 0.028
GVGLGGFGVWGV | 0.73 ± 0.074
GVGLGRVWVKLG | 0.708 ± 0.06
GVGLWGVGFRGG | 0.7 ± 0.034
GVGSGNMEEEGQ | 0.679 ± 0.034
GVGSTGAKTVRG | 0.693 ± 0.018
GVGWGSRGVCLG | 0.659 ± 0.095
GVLHPPARPPPL | 0.654 ± 0.024
GVLVFGLGLVRD | 0.623 ± 0.027
GVLVGGERRWVL | 0.699 ± 0.053
GVQDEERYSRSE | 0.6563 ± 0.0063
GVRATRMGGGPL | 0.706 ± 0.015
GVRVRAGYDVRA | 0.6619 ± 0.0033
GVSLLCLFLGSP | 0.6212 ± 0.0041
GVTDRGIDCGIK | 0.658 ± 0.023
GVTNRQMAWCFS | 0.606 ± 0.071
GVVGGGEDRWSV | 0.738 ± 0.032
GVVGGWRGAGWR | 0.736 ± 0.064
GVVGWTAGLRGG | 0.734 ± 0.045
GVVLVARVTGSS | 0.662 ± 0.075
GVVNSGVFGINS | 0.693 ± 0.054
GVVRGEAGVIGR | 0.817 ± 0.087
GVVWMSCGGWGG | 0.764 ± 0.028
GVWAVGGGGGGR | 0.665 ± 0.069

Sequence | protein stability index
GVWCDIVLPGVM | 0.704 ± 0.052
GVWFWRLKGEGN | 0.713 ± 0.045
GVWGGVGGWGVA | 0.697 ± 0.053
GVWTRTWSLQWI | 0.561 ± 0.015
GWGCCWSVAWTF | 0.614 ± 0.026
GWGGSTLRGVRR | 0.719 ± 0.03
GWRACGRGLVGK | 0.712 ± 0.011
GWRGGCRSGVPE | 0.665 ± 0.064
GWRVSQVLGGDR | 0.741 ± 0.042
GWRVVWAVCGHF | 0.597 ± 0.092
GWSLDYGSTGDR | 0.812 ± 0.018
GWSSSCTATRSA | 0.743 ± 0.045
GWSWGGVRTGSC | 0.841 ± 0.092
GWVNKQVVTEAH | 0.728 ± 0.085
GWVPDGCVGSIG | 0.653 ± 0.069
GWVREAVGFRGG | 0.687 ± 0.028
GWVVGGGRLGVV | 0.723 ± 0.095
GWVVGRGRLGVV | 0.655 ± 0.028
GYDEREKPVLLR | 0.753 ± 0.042
GYEDTLKKILEI | 0.673 ± 0.099
GYGNQLILAISN | 0.576 ± 0.021
GYGRLVSSQSFR | 0.888 ± 0.16
GYKLSIQGYNRK | 0.675 ± 0.014
GYLFLGNMTRHN | 0.737 ± 0.016
GYLLGCGCGWSG | 0.621 ± 0.034
